Experimental data published in patent publication US20020115066A1, “Viral therapeutics” (priority 1998, published 2002).

Experiments:
ADRP [1] = details: cited from earlier work
ADRP [2] = assay: Effect of expression of core proteins on the ability to detect ADRP in BHK C13 cells by confocal microscopy; assay type: cell-based, hamster; details: 20 hours after electroporation, anti-adipophilin antibody
Method: Cells were harvested 20 hours after electroporation and fixed with methanol. ADRP was detected with anti-adipophilin antibody and core protein with 308 antisera. Secondary antibodies were an anti-mouse IgG conjugated with FITC (for anti-adipophilin) and anti-rabbit IgG conjugated with Cy5 (for 308 antisera). Panels A, D, G, J, M and P are images of ADRP localization. Panels B, E, H, K, N, and Q are images of core distribution. Panels C, F, I, L, O and R show the merged images of core and ADRP distributions. Cells were electroporated with RNA from the following constructs: panels A, B and C, pSFV.1-195; panels D, E and F, pSFV.1-173; panels G, H and I, pSFV.1-169; panels J, K and L, pSFV.1-153; panels M, N and O, pSFV.Δ155-161; panels P, Q and R, pSFV.Δ161-166.
(§1) 0.8 ml of competent cells were mixed with in vitro transcribed RNA in an electroporation cuvette (0.4 cm gap) and pulsed twice at either 1.2 kV, 25 μF (for BHK C13 cells) or 0.36 kV, 960 μF (for MCA RH7777 cells). Between pulses, the cell/RNA suspension was gently mixed. Following electroporation, cells were diluted in growth medium and seeded onto either tissue culture dishes or coverslips in 24-well tissue culture plates and then incubated at 37° C.
(§2) Cells on 13 mm coverslips were fixed in either methanol at −20° C. or 4% paraformaldehyde, 0.1% Triton X-100 (prepared in PBS) at 4° C. for 30 mins. Following washing with PBS and blocking with PBS/CS (PBS containing 1% newborn calf serum), cells were incubated with primary antibody (diluted in PBS/CS at 1/200 for JM122 antibody, 1/1000 for 308 antisera and 1/100 for adipophilin antibody) for 2 hours at room temperature. Cells were washed extensively with PBS/CS and then incubated with conjugated secondary antibody (either anti-mouse or anti-rabbit IgG raised in goat) for 2 hours at room temperature. Cells were washed extensively in solutions of PBS/CS followed by PBS and finally H2O before mounting on slides using Citifluor. Samples were analyzed using a Leiss LSM confocal microscope.

lipid droplets = assay: Intracellular localization of core proteins and lipid droplets (indirect immunofluorescence, oil red O, confocal microscopy); assay type: cell-based, hamster; details: BHK C13 cells, 20 hours after electroporation, antibody JM122 and oil red O
Method: BHK C13 cells were harvested 20 hours after electroporation and fixed with 4% paraformaldehyde, 0.1% Triton X-100. Indirect immunofluorescence was performed with antibody JM122 and an anti-mouse secondary antibody conjugated with FITC. Lipid droplets were stained with oil red O. Panels A, D, G, J, M, P, S and V show the distributions of core protein. Panels B, E, H, K, N, Q, T and W show the locations of lipid droplets. Panels C, F, I, L, O, R, U and X are merged images of core protein and lipid droplets. Cells were electroporated with RNA from the following constructs: panels A, B and C, pSFV.1-195; panels D, E and F, pSFV.1-173; panels G, H and I, pSFV.1-169; panels J, K and L, pSFV.1-153; panels M, N and O, pSFV.Δ155-161; panels P, Q and R, pSFV.Δ161-166; panels S, T and U, pSFVA125-144; panels V, W and X, pSFV.1-124, 145-152.
as §1, §2
Following incubation with both antibodies and washing, lipid droplets were stained in paraformaldehyde-fixed cells by briefly rinsing coverslips in 60% propan-2-ol followed by incubation with 0.5 ml 60% propan-2-ol containing oil red O for 1.5-2 mins at room temperature. Coverslips were briefly rinsed with 60% propan-2-ol, washed with PBS and H2O and mounted as described above. The oil red O staining solution was prepared from a saturated stock of approximately 1% oil red O dissolved in propan-2-ol. Before staining, the stock was diluted with H2O and then filtered.
This conclusion was arrived at by combining the techniques of immune electron microscopy with the ability to stain lipid with osmium tetroxide. However, this method suffers from the disadvantages that it is time-consuming and osmium tetroxide can stain other biological molecules (e.g. proteins) in addition to lipid. Therefore, we developed a method for detecting proteins firstly by indirect immunofluorescence followed by staining of lipid droplets with the oil-soluble colorant oil red O. Combined with the method of confocal microscopy, it is possible to visualize the intracellular localizations of core protein and lipid droplets separately and together. Here, BHK C13 cells have been electroporated with pSFV.1-195 RNA and, following incubation at 37° C. for 20 hours, the cells have been examined by both indirect immunofluorescence and staining with oil red O. In panel A, the core protein produced by pSFV.1-195 is seen to locate to vesicular structures in the cytoplasm.

ADRP [3] = assay: Effect of expression of core protein on the abundance of ADRP (Western blot); assay type: cell-based, hamster; details: BHK C13 cells, extracts at various times following electroporation
Method: BHK C13 cells were electroporated with RNA from pSFV.1-195 and pSFV.1-153 and extracts were prepared at the times indicated following electroporation. Aliquots of cell extracts were electrophoresed on 10% polyacrylamide gels and then the proteins were transferred to nitrocellulose membrane for Western blot analysis. The upper panels show membranes probed with JM122 antibody while, in the lower panels, membranes were probed with anti-adipophilin antibody. Bands corresponding to core proteins, expressed from pSFV.1-195 and pSFV.1-153, and ADRP are arrowed.
To prepare extracts, electroporated cells were harvested by removing the growth medium and washing the cell monolayers with PBS. Cells were scraped into PBS and pelleted by centrifugation at 100 g for 5 mins at 4° C. The cell pellet was solubilized in sample buffer consisting of 160 mM Tris (pH 6.7), 2% SDS, 700 mM β-mercaptoethanol, 10% glycerol, 0.004% bromophenol blue.
For Western blot analysis, proteins were separated on polyacrylamide gels and transferred to nitrocellulose membrane using standard techniques. The nitrocellulose membrane was blocked in 3% gelatin, 20 mM Tris (pH 7.5), 500 mM NaCl for at least 6 hours at 37° C. prior to incubation with the primary antibody. […] Bound antibody was detected by enhanced chemiluminescence.

Q: Which ADRP expression (ADRP [1]) does the source give for `CC(C)Cc1ccc(C(C)C(=O)O)cc1` (stereo not drawn) [ibuprofen] here?
A: stimulate ADRP expression

Q: For `COc1ccc2c(c1)c(CC(=O)O)c(C)n2C(=O)c1ccc(Cl)cc1` [indomethacin], which ADRP expression (ADRP [1]) is on record?
A: stimulate ADRP expression

B1: pSFV.Δ155-161: construct lacking the sequences encoding residues 155 to 161 of the core protein of HCV strain Glasgow (protein)
chain: GACECPGRSRRPCTMSTNPKPQRKTKRNTNRRPQDVKFPGGGQIVGGVYLLPRRGPRLGVRATRKTSERSQPRGRRQPIPKARRPKGRNWAQPGYPWPLYGNEGCGWAGWLLSPSGSRPSWGPNDPRRRSRNLGKVIDTLTCGFVDLMGYIPLVARALAHGVRVLEDGVNYATGNLPGCSFSIFLLAL
Q: What does the source list for B1?
A: ADRP detected by immunofluorescence in core-expressing cells (ADRP [2]): barely detectable; intracellular localization of core protein relative to lipid droplets (lipid droplets): did not affect lipid droplet association

B2: pSFV.Δ161-166: construct lacking the sequences encoding residues 161 to 166 of the core protein of HCV strain Glasgow (protein)
chain: GACECPGRSRRPCTMSTNPKPQRKTKRNTNRRPQDVKFPGGGQIVGGVYLLPRRGPRLGVRATRKTSERSQPRGRRQPIPKARRPKGRNWAQPGYPWPLYGNEGCGWAGWLLSPSGSRPSWGPNDPRRRSRNLGKVIDTLTCGFVDLMGYIPLVGAPLRGHGVRVLEDGVNYATGNLPGCSFSIFLLAL
Q: What does the source list for B2?
A: ADRP detected by immunofluorescence in core-expressing cells (ADRP [2]): readily found; intracellular localization of core protein relative to lipid droplets (lipid droplets): diffuse cytoplasmic pattern

B3: pSFV.Δ125-144: construct expressing a core variant in which residues 125 to 144 had been deleted (protein)
chain: GACECPGRSRRPCTMSTNPKPQRKTKRNTNRRPQDVKFPGGGQIVGGVYLLPRRGPRLGVRATRKTSERSQPRGRRQPIPKARRPKGRNWAQPGYPWPLYGNEGCGWAGWLLSPSGSRPSWGPNVDLMGYIPLVGAPLRGAARALAHGVRVLEDGVNYATGNLPGCSFSIFLLAL
Q: With B3 as the molecule, how does the “intracellular localization of core protein relative to lipid droplets” value (lipid droplets) read?
A: diffuse fluorescence

B4: pSFV.1-124,145-152: core variant truncated at residue 152 and lacking amino acids 125 to 144 (protein)
chain: GACECPGRSRRPCTMSTNPKPQRKTKRNTNRRPQDVKFPGGGQIVGGVYLLPRRGPRLGVRATRKTSERSQPRGRRQPIPKARRPKGRNWAQPGYPWPLYGNEGCGWAGWLLSPSGSRPSWGPNVDLMGYIP
Q: With B4 as the molecule, how does the “intracellular localization of core protein relative to lipid droplets” value (lipid droplets) read?
A: diffuse fluorescence

B5: pSFV.1-153: SFV construct encoding amino acid residues 1-153 of HCV strain Glasgow core (protein)
chain: GACECPGRSRRPCTMSTNPKPQRKTKRNTNRRPQDVKFPGGGQIVGGVYLLPRRGPRLGVRATRKTSERSQPRGRRQPIPKARRPKGRNWAQPGYPWPLYGNEGCGWAGWLLSPSGSRPSWGPNDPRRRSRNLGKVIDTLTCGFVDLMGYIPL
Q: What does the source list for B5?
A: abundance of ADRP by Western blot (ADRP [3]): no change in the abundance of ADRP; ADRP detected by immunofluorescence in core-expressing cells (ADRP [2]): readily found; intracellular localization of core protein relative to lipid droplets (lipid droplets): do not associate with lipid droplets

B6: pSFV.1-169: SFV construct encoding amino acid residues 1-169 of HCV strain Glasgow core (protein)
chain: GACECPGRSRRPCTMSTNPKPQRKTKRNTNRRPQDVKFPGGGQIVGGVYLLPRRGPRLGVRATRKTSERSQPRGRRQPIPKARRPKGRNWAQPGYPWPLYGNEGCGWAGWLLSPSGSRPSWGPNDPRRRSRNLGKVIDTLTCGFVDLMGYIPLVGAPLRGAARALAHGV
Q: For B6, which “ADRP detected by immunofluorescence in core-expressing cells” value (shortened to “ADRP detected by immunofluorescence”) (ADRP [2]) is on record?
A: barely detectable

Q: And the “intracellular localization of core protein relative to lipid droplets” value (lipid droplets)?
A: continue to locate to lipid droplets

B7: pSFV.1-173: SFV construct encoding amino acid residues 1-173 of HCV strain Glasgow core (protein)
chain: GACECPGRSRRPCTMSTNPKPQRKTKRNTNRRPQDVKFPGGGQIVGGVYLLPRRGPRLGVRATRKTSERSQPRGRRQPIPKARRPKGRNWAQPGYPWPLYGNEGCGWAGWLLSPSGSRPSWGPNDPRRRSRNLGKVIDTLTCGFVDLMGYIPLVGAPLRGAARALAHGVRVLE
Q: With B7 as the molecule, how does the “ADRP detected by immunofluorescence” value (ADRP [2]) read?
A: barely detectable

Q: What about the “intracellular localization of core protein relative to lipid droplets” value (lipid droplets) of the same molecule?
A: continue to locate to lipid droplets

B8: pSFV.1-195: SFV construct encoding the N-terminal 195 amino acids of HCV strain Glasgow (core protein) (protein)
chain: GACECPGRSRRPCTMSTNPKPQRKTKRNTNRRPQDVKFPGGGQIVGGVYLLPRRGPRLGVRATRKTSERSQPRGRRQPIPKARRPKGRNWAQPGYPWPLYGNEGCGWAGWLLSPSGSRPSWGPNDPRRRSRNLGKVIDTLTCGFVDLMGYIPLVGAPLRGAARALAHGVRVLEDGVNYATGNLPGCSFSIFLLAL
Q: For B8, which “abundance of ADRP by Western blot” value (ADRP [3]) is on record?
A: rapid reduction in ADRP levels to barely detectable quantities

Q: What about the “ADRP detected by immunofluorescence” value (ADRP [2]) of the same molecule?
A: either lacked or contained barely detectable amounts of ADRP

Q: And the “intracellular localization of core protein relative to lipid droplets” value (lipid droplets)?
A: sited around the lipid droplets
